Laboratory results published in patent publication US20250011406A1 (US Dept. of Health and Human Services, published 2025).
No end group written: not given here.

T1: peptide NANP5, penta-NANP repeat (not fully specified; biotinylated)
T1 construct: Printed only as the formula (NANP)5 / NANP5
T1 peptide: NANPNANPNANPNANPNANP

T2: NPDP19-KLH conjugate (Plasmodium falciparum, also: conjugated to KLH carrier via maleimide linker, site not given here)
T2 construct: not shown: KLH carrier protein (about 390 kDa)
T2 peptide: KQPADGNPDPNANPNVDPN

B1: iGL-CIS43-HL.K28.m43.151 Fab (Fab, V domains shown)
VH: QVHLVQSGAEVKKPGASVKVSCKASGYTFTSYAIHWVRQAPGQRLEWMGWIKGGNGNTRYSQKFQDRVTITRDTSASTAYMELSSLRSEDTAVYYCALLTVITPDDAFDIWGQGTMVTVSS
VL: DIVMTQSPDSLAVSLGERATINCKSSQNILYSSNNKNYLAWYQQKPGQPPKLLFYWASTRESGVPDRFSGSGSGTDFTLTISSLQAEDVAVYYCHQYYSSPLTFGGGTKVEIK
notes: also called m43_HH28K.17
B2: iGL-CIS43-HL.K28.m42.127 Fab (Fab, V domains shown)
VH: QVQLVQSGAEVKKPGASVKVSCKASGYTFTSYAIHWVRQAPGQRLEWMGWIKAGNGNTRYSQKFQDRVTITRDTSASTAYMELSSLRSEDTAVYYCALLTVITPDDTFDIWGQGTMVTVSS
VL: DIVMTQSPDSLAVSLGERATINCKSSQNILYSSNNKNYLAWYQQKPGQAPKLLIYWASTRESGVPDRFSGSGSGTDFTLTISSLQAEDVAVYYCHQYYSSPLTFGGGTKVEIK
notes: also called m42_HH28K.13
B3: inferred germline CIS43 (iGL-CIS43) mAb (IgG) (antibody, V domains shown)
VH: QVQLVQSGAEVKKPGASVKVSCKASGYTFTSYAMHWVRQAPGQRLEWMGWINAGNGNTKYSQKFQGRVTITRDTSASTAYMELSSLRSEDTAVYYCALLTVVTPDDAFDIWGQGTMVTVSS
VL: not shown
notes: also called CIS43 gHgL; iGL-CIS43_UCA
B4: m43.160 Fab (Fab, V domains shown)
VH: QVQLVQSGAEVKKPGASVKVSCKASGYTFTSYAIHWVRQAPGQRLEWMGWIKAGNGNTRYSQKFQGRVTITRDTSASTAYMELSSLRSEDTAGYYCALLTVITPDDAFDIWGQGTMVTVSS
VL: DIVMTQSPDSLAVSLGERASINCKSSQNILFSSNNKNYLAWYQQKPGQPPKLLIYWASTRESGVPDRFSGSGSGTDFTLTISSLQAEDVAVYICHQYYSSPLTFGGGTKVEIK
notes: also called m43_HH28K.26
B5: mature CIS43 Fab (Fab, V domains shown)
VH: QVQLVQSGAEVKKPGASVKVSCKASGYTFTSYAIHWVRQAPGQRLEWMGWIKAGNGNTRYSQKFQDRVTITRDTSTTTAYMELSSLRSEDTAVYYCALLTVLTPDDAFDIWGQGTMVTVSS
VL: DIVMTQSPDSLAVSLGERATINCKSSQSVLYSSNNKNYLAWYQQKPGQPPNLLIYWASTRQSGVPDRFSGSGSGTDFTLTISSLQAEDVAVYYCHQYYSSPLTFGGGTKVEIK
notes: also called CIS43 mature; CIS43 WT
B6: inferred germline CIS43 (iGL-CIS43) Fab (Fab, V domains shown)
VH: QVQLVQSGAEVKKPGASVKVSCKASGYTFTSYAMHWVRQAPGQRLEWMGWINAGNGNTKYSQKFQGRVTITRDTSASTAYMELSSLRSEDTAVYYCALLTVVTPDDAFDIWGQGTMVTVSS
VL: not shown
notes: as for B3

Columns and labels:
[1] = molecular target: T3, mature CIS43 antibody (IgG); assay: competition ELISA (MSD): peptide pre-incubated with CIS43, read-out CIS43 bound to plate-bound rPfCSP
T3 construct: also called CIS43 WT
T3 sequence (heavy, as listed by the source, chain 1 of 2): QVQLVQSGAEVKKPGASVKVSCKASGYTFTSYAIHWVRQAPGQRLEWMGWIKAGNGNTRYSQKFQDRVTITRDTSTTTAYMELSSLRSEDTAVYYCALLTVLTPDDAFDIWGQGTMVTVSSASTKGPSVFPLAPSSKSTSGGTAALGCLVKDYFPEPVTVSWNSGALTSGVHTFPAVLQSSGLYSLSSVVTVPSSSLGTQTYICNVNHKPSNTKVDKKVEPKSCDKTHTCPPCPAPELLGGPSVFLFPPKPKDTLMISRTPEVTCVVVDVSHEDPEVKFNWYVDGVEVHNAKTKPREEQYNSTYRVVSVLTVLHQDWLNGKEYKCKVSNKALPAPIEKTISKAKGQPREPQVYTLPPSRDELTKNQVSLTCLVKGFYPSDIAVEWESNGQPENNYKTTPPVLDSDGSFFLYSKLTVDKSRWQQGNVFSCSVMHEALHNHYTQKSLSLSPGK
T3 sequence (light, as listed by the source, chain 2 of 2): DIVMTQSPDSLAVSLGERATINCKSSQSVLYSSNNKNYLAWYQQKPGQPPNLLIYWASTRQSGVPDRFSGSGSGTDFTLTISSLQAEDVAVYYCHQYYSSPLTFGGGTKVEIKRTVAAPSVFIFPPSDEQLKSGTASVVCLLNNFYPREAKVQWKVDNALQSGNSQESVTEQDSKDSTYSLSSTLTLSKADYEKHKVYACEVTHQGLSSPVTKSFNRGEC
Experimental: Peptides were all 15 amino acids in length, overlapping by 11 residues, and numbered according to their position on the protein. Briefly, streptavidin-coated plates (Meso Scale Discovery, MSD) were blocked with 5% BSA in PBS for 30 min at room temperature (RT), washed five times (wash buffer, 0.05% Tween-20 in PBS), then coated with biotinylated-recombinant PfCSP (0.2 μg/mL, Genscript) in PBS with 1% BSA, and allowed to incubate for 1 h at RT. […] Plates were incubated for 1 h at RT, washed five times, then incubated for an additional 1 h at RT with 1 μg/mL of appropriate secondary (either anti-human or anti-mouse) IgG SULFO-TAG (Meso Scale Discovery) in PBS with 1% BSA/0.05% Tween-20. After washing, plates were read using 1×MSD Read T Buffer (Meso Scale Discovery) on an MSD SECTOR © Imager 6000 instrument.

[2] = molecular target: T1, peptide NANP5, penta-NANP repeat; assay: BLI (Octet), Fab on biotinylated NANP5 peptide
Experimental: (§1) Affinity measurements by BLI. Antibody Fab binding affinity to various ligands were measured using biolayer interferometry on an Octet Red384 instrument (fortdBio) with streptavidin capture biosensors (fortdBio) in solid black tilt-well 96-well plates (Geiger Bio-One). Assays were performed with agitation at 25° C. […] In all Octet measurements, parallel correction to subtract systematic baseline drift was carried out by subtracting the measurements recorded for a loaded sensor incubated in PBS. Data analysis was carried out using Octet software, version 9.0. Experimental data were fitted globally with a 1:1 Langmuir model of binding.

[3] = molecular target: T4, recombinant Plasmodium falciparum circumsporozoite protein (rPfCSP), biotinylated (Plasmodium falciparum, UniProt P19597 21-375); assay: BLI (Octet), Fab on biotinylated rPfCSP; 2-component fit, second KD (KD2)
T4 sequence (P19597 21-375 limits assumed): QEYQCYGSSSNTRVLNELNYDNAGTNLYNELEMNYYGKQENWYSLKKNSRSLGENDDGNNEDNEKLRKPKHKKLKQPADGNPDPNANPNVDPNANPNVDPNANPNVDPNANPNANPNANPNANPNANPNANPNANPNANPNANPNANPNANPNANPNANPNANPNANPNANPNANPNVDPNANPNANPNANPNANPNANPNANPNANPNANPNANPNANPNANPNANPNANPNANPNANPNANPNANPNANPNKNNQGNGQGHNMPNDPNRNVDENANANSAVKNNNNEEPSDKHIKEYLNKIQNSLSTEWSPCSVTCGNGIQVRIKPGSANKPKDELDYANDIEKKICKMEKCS
Experimental: as §1

[4] = molecular target: T4, recombinant Plasmodium falciparum …; assay: BLI (Octet), Fab on biotinylated rPfCSP; 2-component fit, primary KD
Experimental: as §1

NPDP19-KLH conjugate = molecular target: T2, NPDP19-KLH conjugate; assay: ELISA on NPDP19-KLH

| Binder | binding result [1] | Kd [2] [nM] | Kd [3] [nM] | Kd [4] [nM] | binding result (NPDP19-KLH conjugate) |
| --- | --- | --- | --- | --- | --- |
| NANPNVDPNANPNAN (also called PfCSP peptide 44) [44: NANPNVDPNANPNAN] | binds |  |  |  |  |
| B1 |  | 715 | 1700 | 38.3 |  |
| B2 |  | 952 | 1980 | 31.6 |  |
| B3 |  |  |  |  | binds |
| B4 |  | 957 | 1820 | 36.8 |  |
| B5 |  | 411 | 1330 | 45.2 |  |
| B6 |  | 9650 | 5050 | 679 |  |
| NANPNANPNVDPNAN (also called PfCSP peptide 43) [43: NANPNANPNVDPNAN] | binds |  |  |  |  |
| NVDPNANPNANPNAN (also called PfCSP peptide 27) [27: NVDPNANPNANPNAN] | binds |  |  |  |  |
